Measurements published in patent US20210340257A1.

Assays:
[1] = target: human B7-H3 (CD276), on cells (human) (UniProt Q5ZPR3); test: flow chamber attachment of microbubbles to MS1hB7-H3 cells under shear
[2] = target: human B7-H3 (CD276), on cells (human) (UniProt Q5ZPR3); test: parallel-plate flow chamber attachment of microbubbles to MS1 B7-H3+ cells under shear
[3] = target: human B7-H3 (CD276), on cells (human) (UniProt Q5ZPR3); test: cell-based or functional assay
[4] = target: mouse B7-H3, on cells (mouse) (UniProt Q8VE98); test: cell-based or functional assay
[5] = target: recombinant soluble human B7-H3 ectodomain protein (human) (UniProt Q5ZPR3); test: flow cytometry; antibody on streptavidin magnetic beads, 3 µM soluble B7-H3, detected with APC anti-B7-H3 antibody
[6] = target: recombinant soluble human B7-H3 ectodomain protein (human) (UniProt Q5ZPR3); test: flow cytometry; unconjugated streptavidin magnetic beads, 3 µM soluble B7-H3, detected with APC anti-B7-H3 antibody

human B7-H3 (CD276), on cells (human), sequence (Q5ZPR3 29-534): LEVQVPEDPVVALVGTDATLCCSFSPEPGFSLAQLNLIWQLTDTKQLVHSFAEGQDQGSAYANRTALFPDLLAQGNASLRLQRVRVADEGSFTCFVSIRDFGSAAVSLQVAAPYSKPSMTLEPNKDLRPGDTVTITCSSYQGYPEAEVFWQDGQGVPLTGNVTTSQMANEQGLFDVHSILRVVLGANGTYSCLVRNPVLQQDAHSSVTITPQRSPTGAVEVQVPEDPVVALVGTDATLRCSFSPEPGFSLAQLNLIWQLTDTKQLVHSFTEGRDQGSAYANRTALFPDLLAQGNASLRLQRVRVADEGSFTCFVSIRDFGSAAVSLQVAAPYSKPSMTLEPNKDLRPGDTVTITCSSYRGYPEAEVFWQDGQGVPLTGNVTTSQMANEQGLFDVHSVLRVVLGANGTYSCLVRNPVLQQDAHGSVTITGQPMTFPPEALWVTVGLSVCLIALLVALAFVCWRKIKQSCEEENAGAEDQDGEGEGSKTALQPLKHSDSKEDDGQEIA
mouse B7-H3, on cells (mouse), sequence (Q8VE98 29-316): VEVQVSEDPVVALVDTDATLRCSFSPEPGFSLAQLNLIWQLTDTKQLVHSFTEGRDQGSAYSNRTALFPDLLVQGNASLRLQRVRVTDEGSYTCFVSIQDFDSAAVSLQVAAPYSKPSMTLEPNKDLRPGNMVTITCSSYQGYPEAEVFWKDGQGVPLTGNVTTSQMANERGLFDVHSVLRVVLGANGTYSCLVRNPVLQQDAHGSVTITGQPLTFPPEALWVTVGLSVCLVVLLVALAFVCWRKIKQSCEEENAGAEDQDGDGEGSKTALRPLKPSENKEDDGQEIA

microbubbles attached per cell [1] [MB/cell] | microbubbles attached per cell [2] [MB/cell] | US molecular imaging signal, orthotopic MDA-MB-231 tumors co-implanted with MS1hB7-H3 cells [3] [a.u.] | US molecular imaging signal, mammary tumors of MMTV-PyMT transgenic mice [4] [a.u.] | in vivo ultrasound molecular imaging signal of tumors (transgenic mouse model) [4] [a.u.] | targeted imaging signal in transgenic mice with breast tumors [4] [a.u.] | % binding [5] [%] | % binding [6] [%] | Substance
0.5 | 0.5 |  |  |  |  |  |  | MBNon-targeted (unconjugated streptavidin-coated microbubbles) (from UniProt P22629 37-163)
9.8 | 9.79 | 8.2 | 7.2 | 4.82 | 6.22 | 81 |  | biotinylated anti-B7-H3 antibody (eBiosciences, clone M3.2D7)
 |  |  |  |  |  |  | 1 | unconjugated streptavidin magnetic beads (from UniProt P22629 37-163)
